# Article PMC8451464
# Biological target: papain (UniProt P00784)
# UniProt P00784, sequence (P00784 134-345): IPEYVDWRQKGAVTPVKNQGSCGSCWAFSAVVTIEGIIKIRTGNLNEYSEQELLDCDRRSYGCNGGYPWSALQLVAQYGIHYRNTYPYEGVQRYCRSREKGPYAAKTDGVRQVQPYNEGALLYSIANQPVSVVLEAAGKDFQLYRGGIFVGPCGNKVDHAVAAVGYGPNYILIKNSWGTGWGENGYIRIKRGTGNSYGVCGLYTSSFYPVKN
substance,measurement,value
His-SSPbP53 (natural protein),"degradation of fluorescein-labeled casein by papain (100 μg/mL) with His-SSPbP53 at 100 and 500 nM, 1 h at room temperature (% reduction of activity)",> 50
